{"source": "patent US20130224191A1", "about": "“NOTUM PROTEIN MODULATORS AND METHODS OF USE” (priority 2010, published 2013)", "key": {"hNotum-Fc": {"molecular_target": "T1, hNotum-Fc (Homo sapiens, UniProt Q6P988)", "T1 construct": "IL-2 signal peptide (N); made in house; host or cells: CHO-S", "T1 sequence (Q6P988 with tags, fused parts or gaps)": "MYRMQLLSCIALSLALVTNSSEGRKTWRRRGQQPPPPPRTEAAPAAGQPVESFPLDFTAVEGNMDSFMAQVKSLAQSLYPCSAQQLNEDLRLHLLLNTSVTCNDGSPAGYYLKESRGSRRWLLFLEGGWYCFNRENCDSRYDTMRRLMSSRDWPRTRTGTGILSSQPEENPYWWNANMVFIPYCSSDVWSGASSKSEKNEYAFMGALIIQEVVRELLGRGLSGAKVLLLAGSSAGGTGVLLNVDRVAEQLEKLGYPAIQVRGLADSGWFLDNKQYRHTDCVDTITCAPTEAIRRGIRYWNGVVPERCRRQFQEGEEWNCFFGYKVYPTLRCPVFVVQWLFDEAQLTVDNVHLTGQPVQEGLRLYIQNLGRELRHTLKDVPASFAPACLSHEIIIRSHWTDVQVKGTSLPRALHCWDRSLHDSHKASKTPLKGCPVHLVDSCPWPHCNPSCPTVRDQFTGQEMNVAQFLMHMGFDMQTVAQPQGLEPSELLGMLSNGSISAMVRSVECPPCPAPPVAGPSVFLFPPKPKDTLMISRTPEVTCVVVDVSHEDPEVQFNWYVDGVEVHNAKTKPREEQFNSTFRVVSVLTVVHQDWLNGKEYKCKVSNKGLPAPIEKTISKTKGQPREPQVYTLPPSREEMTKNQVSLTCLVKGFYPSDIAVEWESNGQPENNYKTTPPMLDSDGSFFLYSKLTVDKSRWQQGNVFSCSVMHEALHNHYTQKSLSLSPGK", "assay": "Triton X114 partition assay, blocking of hNotum-Fc", "format": "biochemical", "details": "hNotum-Fc preincubated with antibody", "text": "If Notum directly acts upon Wnt3A to delipidate the protein, this cleavage should result in a change in the hydrophobicity of the protein, which can be measured by a change in its partitioning behavior between aqueous and detergent phases in a Triton X114 partition assay (Bordier, 1981, PMID: 6257680): lipidated Wnt3A will be found in the […], whereas delipidated Wnt3A should show up in the […] (Willert et al., 2003, PMID: 12717451). […] An equal volume of 4.5% Triton X114 was added to the mixture, the mixture incubated on ice for 5 minutes, then at 37° C. for five minutes, before separating the phases using centrifugation at 2000×g for five minutes at room temperature. Following separation each sample was adjusted to normalize the ionic strength and Triton X114 content before analyzing the aliquots by PAGE electrophoresis. After running the gel the protein bands were transferred to a membrane for immunoblotting using an anti-rhWnt3A antibody (Cell Signaling Technology). Bands were visualized using SuperSignal West Pico Chemiluminescent substrate (Thermo Fisher Scientific).\nLane 1 is a positive molecular weight marker for rhWnt3A while the presence or absence of reagents in each aliquot is noted above the respective lane (where a is the aqueous fraction and t is Triton X-114 fraction, and the sliding bar indicates the concentration of Notum modulator). […]"}, "hNotum": {"molecular_target": "T2, hNotum (Homo sapiens, UniProt Q6P988)", "T2 construct": "8x-His; Strep-tag II; IgK signal peptide/leader of the pSEC-CAG vector (N); made in house; host or cells: HEK293T (adherent) / suspension 293 cells", "T2 sequence (Q6P988 20-496)": "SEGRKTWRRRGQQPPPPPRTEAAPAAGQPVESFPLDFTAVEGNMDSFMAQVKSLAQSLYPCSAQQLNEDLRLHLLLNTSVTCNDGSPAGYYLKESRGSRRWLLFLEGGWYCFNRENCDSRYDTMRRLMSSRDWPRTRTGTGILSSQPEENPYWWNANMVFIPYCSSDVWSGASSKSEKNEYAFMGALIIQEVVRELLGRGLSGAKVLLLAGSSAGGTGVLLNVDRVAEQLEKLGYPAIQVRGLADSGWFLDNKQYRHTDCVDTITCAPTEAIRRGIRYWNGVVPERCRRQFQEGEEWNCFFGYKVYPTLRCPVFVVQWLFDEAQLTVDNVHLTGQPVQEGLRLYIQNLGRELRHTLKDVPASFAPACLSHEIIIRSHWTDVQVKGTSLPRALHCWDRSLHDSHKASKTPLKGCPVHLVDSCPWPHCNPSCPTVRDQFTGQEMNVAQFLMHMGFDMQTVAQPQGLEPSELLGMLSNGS", "assay": "Inhibition of hNotum lipase activity (Tween 20)", "format": "biochemical", "details": "preincubation, various concentrations", "experimental": "Briefly, recombinant hNotum (1 μg/well) was added to an assay buffer containing 50 mM Tris, pH 7.4, 33.3 mM CaCl2, and 0.33% Tween-20. When the Tween 20 monolauryl group is cleaved by lipases (e.g. hNotum), the free fatty acid forms an insoluble complex with the Ca^2+ cations resulting in a turbid solution, the OD of which can be measured at 405 nm to provide a measure of lipase activity. As a positive control, the activity of porcine pancreatic lipase (Sigma Aldrich) was measured in the same assay.\nIn order to take advantage of this enzymatic property and further exemplify the properties of the present invention, an assay was run to determine the effects of Notum modulators on the lipolytic activity of Notum. To that end, various concentrations of SC2.D2.2 were preincubated with hNotum for a set period prior to adding the mixture to the assay buffer and measuring the resulting enzymatic activity as described above. The results of the assay are graphically represented in FIG. 20"}, "[1]": {"molecular_target": "T3, chimeric human/mouse Notum (Homo sapiens, UniProt Q6P988, A205S/A256S/E196D/E289D/E487K/H276R/H373G/H396Y/K251E/L360Q/L418F/L429M/L483M/M474V/N299S/P379Q/P480Q/Q248L/Q311K/R218K/R307Q/R361W/S193P/T277S/T284N/V280I/V301M/V434F/V452I/Y171H)", "T3 construct": "human mature Notum protein (residues 19-144) fused to the mouse Notum (mouse residues 150-484); His tag; made in house", "T3 sequence (Q6P988 with tags, fused parts or gaps Y171H/S193P/E196D/A205S/R218K/Q248L/K251E/A256S/H276R/T277S/V280I/T284N/E289D/N299S/V301M/R307Q/Q311K/L360Q/R361W/H373G/P379Q/H396Y/L418F/L429M/V434F/V452I/M474V/P480Q/L483M/E487K)": "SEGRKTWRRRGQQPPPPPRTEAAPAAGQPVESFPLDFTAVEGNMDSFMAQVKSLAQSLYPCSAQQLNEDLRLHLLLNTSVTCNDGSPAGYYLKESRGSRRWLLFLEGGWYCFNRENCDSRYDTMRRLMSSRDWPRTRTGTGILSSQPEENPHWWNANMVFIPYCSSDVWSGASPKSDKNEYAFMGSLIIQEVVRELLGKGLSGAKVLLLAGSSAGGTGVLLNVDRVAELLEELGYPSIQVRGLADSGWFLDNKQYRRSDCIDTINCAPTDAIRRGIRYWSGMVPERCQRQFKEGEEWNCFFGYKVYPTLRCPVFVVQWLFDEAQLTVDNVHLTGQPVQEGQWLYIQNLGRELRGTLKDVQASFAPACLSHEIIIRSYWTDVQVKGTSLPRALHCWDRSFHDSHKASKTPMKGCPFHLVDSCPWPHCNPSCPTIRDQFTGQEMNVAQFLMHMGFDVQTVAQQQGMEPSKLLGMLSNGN", "assay": "Epitope mapping ELISA, chimeric Notum", "format": "binding", "text": "To better understand the structural basis for the interaction of SC2.D2.2 with human Notum, a chimeric Notum protein was fabricated. This approach takes advantage of the fact that the orthologs are structurally related. To that end a chimeric Notum molecule composed of the N terminal of the human mature Notum protein (residues 19-144) fused to the mouse Notum (mouse residues 150-484) (genes both consistent with Example 7) was generated and expressed in a similar manner to that set forth in previous Examples. The BamHI restriction cleavage site in human Notum gene was used for construction of in-frame fusion Notum chimeric protein. An expression vector was then constructed containing the His tagged chimeric Notum sequence.\nBinding of SC2.D2.2 and other mouse mAbs to purified Notum molecules generated from transient transfection of Human and Mouse Notum cDNAs were tested using ELISA assay with human Notum, mouse Notum and chimeric human/mouse Notum coated directly on ELISA plate. Binding of anti-Notum mAbs was detected with HRP-conjugated goat anti mouse antibody and followed by colorimetric horseradish peroxidase substrate (TMB substrate Thermo Scientific). The absorbance of each well of the ELISA plates was measured at 450 nm on a microplate autoreader."}}, "data": [{"molecule": "SC2.D2.2 (antibody, V domains shown, also called murine SC2.D2.2) VH: DVQLVESGGGLVQPGGSRKISCAASGFTFSSYGMHWVRQAPEKGLEWVAYISSSTVTTYYADTVKGRFTISRDNANNTLFLQMTSLRSEDTAMYYCSRQNWDGGYFDVWGAGTTVTVSS VL: DIVLTQSLASLAVSLGQRATISCRASKSVSSSGYSYMHWYQQKPGQPPKLLIYLASNLESGVPARFSGSGSGTDFTLNIHPVEEEDAATYYCQHSRALPLTFGAGTKLELKR", "values": [{"measurement": "blocking of Notum induced redistribution of rhWnt3A", "setting": "hNotum-Fc", "result": "can be blocked"}, {"measurement": "effect on lipase activity of Notum", "setting": "hNotum", "result": "substantially eliminate the lipase activity of Notum"}, {"measurement": "binding to Notum chimeric protein", "setting": "[1]", "result": "confirmed the binding"}, {"measurement": "location of epitope", "setting": "[1]", "result": "within the first 135 residues of the N terminus of the human Notum protein"}]}]}
